Measured values reported in paper PMC12531337.

Biological target: T1, ZEB2 ZnF8 peptide (UniProt O60315 1055-1076)
T1 chain: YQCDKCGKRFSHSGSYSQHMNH
Experiment: NMR

B1: ZnF-binding DNA (E2 box) (dsDNA)
DNA 1: GTAATCTGGGCCACCTGCCTGGGAGGA
DNA 2: TCCTCCCAGGCAGGTGGCCCAGATTAC
- binding result: binds
